Patent US20240158479A1

What was measured:
Test in all cases: cell-based or functional assay
[1] = target: Omicron BA.4.6 spike on pseudovirus (SARS-CoV-2)
[2] = target: Omicron BQ.1.1 spike on pseudovirus (SARS-CoV-2)
[3] = target: Omicron BA.4/5 spike on pseudovirus (SARS-CoV-2)
[4] = target: Delta spike (B.1.617.2) on pseudovirus (SARS-CoV-2)
[5] = target: Beta spike (B.1.351) on pseudovirus (SARS-CoV-2)
[6] = target: Omicron BA.2.12.1 spike on pseudovirus (SARS-CoV-2)
[7] = target: Alpha spike (B.1.1.7) on pseudovirus (SARS-CoV-2)
[8] = target: Gamma spike (P.1) on pseudovirus (SARS-CoV-2)
[9] = target: Omicron BA.2.75 spike on pseudovirus (SARS-CoV-2)
[10] = target: Omicron BA.2 spike on pseudovirus (SARS-CoV-2)
[11] = target: Omicron BA.1 spike on pseudovirus (SARS-CoV-2)

| Substance | IC50, pseudovirus neutralization [1] | IC50, pseudovirus neutralization [2] | IC50, pseudovirus neutralization [3] | IC50, pseudovirus neutralization [4] | IC50, pseudovirus neutralization [5] | IC50, pseudovirus neutralization [6] | IC50, pseudovirus neutralization [7] | IC50, pseudovirus neutralization [8] | IC50, pseudovirus neutralization [9] | IC50, pseudovirus neutralization [10] | IC50, pseudovirus neutralization [11] |
| --- | --- | --- | --- | --- | --- | --- | --- | --- | --- | --- | --- |
| Imdevimab (antibody) | 0.18 µg/mL | > 5 µg/mL | 0.32 µg/mL | 0.0035 µg/mL | 0.0028 µg/mL | 0.1 µg/mL | 0.0028 µg/mL | 0.0019 µg/mL | > 5 µg/mL | 0.51 µg/mL | > 5 µg/mL |
| Bebtelovimab (antibody) | 0.0013 µg/mL | > 5 µg/mL | 0.0014 µg/mL | 0.0015 µg/mL | 0.0009 µg/mL | 0.0023 µg/mL | 0.002 µg/mL | 0.0017 µg/mL | 0.0033 µg/mL | 0.0018 µg/mL | 0.0023 µg/mL |
| Tixagevimab (antibody) | > 5 µg/mL | > 5 µg/mL | > 5 µg/mL | 0.0008 µg/mL | 0.0054 µg/mL | 0.56 µg/mL | 0.0017 µg/mL | 0.006 µg/mL | 0.11 µg/mL | > 5 µg/mL | 0.14 µg/mL |
| Cilgavimab (antibody) | > 5 µg/mL | > 5 µg/mL | 0.018 µg/mL | 0.018 µg/mL | 0.003 µg/mL | 0.019 µg/mL | 0.01 µg/mL | 0.005 µg/mL | 0.055 µg/mL | 0.0091 µg/mL | 0.21 µg/mL |
| Bamlanivimab (antibody) | > 5 µg/mL | > 5 µg/mL | > 5 µg/mL | 0.59 µg/mL | 0.21 µg/mL | > 5 µg/mL | 0.0034 µg/mL | 1.4 µg/mL | > 5 µg/mL | > 5 µg/mL | > 5 µg/mL |
| Etesevimab (antibody) | > 5 µg/mL | > 5 µg/mL | > 5 µg/mL | 0.0058 µg/mL | > 5 µg/mL | > 5 µg/mL | 0.1 µg/mL | > 5 µg/mL | > 5 µg/mL | > 5 µg/mL | > 5 µg/mL |
| Casirivimab (antibody) | > 5 µg/mL | > 5 µg/mL | > 5 µg/mL | 0.0027 µg/mL | 0.094 µg/mL | > 5 µg/mL | 0.0052 µg/mL | 0.18 µg/mL | 0.44 µg/mL | > 5 µg/mL | > 5 µg/mL |
